Data set [1] has as its target EPSPS from Agrobacterium sp. strain CP4 (Agrobacterium sp., UniProt Q9R4E4). The data set can be described thus: kgly: enzyme turnover at 30 μM PEP and S3P, 1 mM glyphosate, CP4 EPSPS. Type of data set: biochemical. The source says:
A customized parameter for predicting performance in the treated plant that would be a more accurate representation than kcat/Km*Ki. […] However, kcat/Km*Ki may be inadequate for predicting the reaction velocity under the conditions of the application (plants sprayed with glyphosate) because it may neglect concentrations of substrate and inhibitor, factors that are not intrinsic to the enzyme, but on which the reaction rate depends. Therefore, libraries derived from C1 on in FIG. 2 were evaluated with a single rate measurement designed to take all factors in the rate equation for competitive inhibition into account. […] Glyphosate was included at 1 mM, a concentration attainable in tissues, especially meristems, receiving metabolite flow from treated leaves. The pH (7.0), ionic strength (100 mM KCl) and co-solvent concentration (5% ethylene glycol) were also intended to mimic in vivo conditions. The unit for the parameter is reaction rate (μM·min^−1) per enzyme concentration (μM), or min^−1, describing the enzyme turnover under application conditions, which we abbreviate as “kgly”. Although individual kinetic parameters for key variants were obtained, kgly was adopted a parameter needed both for medium throughput screening and for ultimate evaluation of fitness.

Data set [2] concerns the target CP4 EPSPS (Agrobacterium sp., UniProt Q9R4E4). The experiment in a line: substrate saturation kinetic analysis (kcat, Km, Ki). In kind it is biochemical, Agrobacterium sp. strain CP4. Here is the method: (§1) EPSPS activity was determined by quantifying the phosphate generated from the EPSPS reaction. Release of inorganic phosphate was coupled to its reaction with 2-amino-6-mercapto-7-methylpurine ribonucleoside (MESG), catalyzed by purine nucleoside phosphorylase, according to previously described protocols. To determine the kcat gly, enzyme preparations were normalized to 0.1 mg/ml and four- to six-microliter aliquots of normalized enzyme were added to the wells of a low UV-absorbing 96-well assay plate (Greiner UV-Star). Reactions were started with the addition of 2×147 μl of reaction mixture containing 25 mM Hepes, pH 7.0, 100 mM KCl, 5% ethylene glycol, 30 μM each of PEP and S3P, 0.15 mM MESG, 1.5 U/ml purine nucleoside phosphorylase (Sigma N8264) and 1 mM glyphosate. Absorbance was monitored at 4 sec intervals for 50 sec with a Spectramax plate reader (Molecular Devices). […] Division by the enzyme concentration (0.04 to 0.1 uM, depending on activity) yields “kcat gly” in units of min^−1.
Combinatorial shuffling, maize native EPSPS—The mutations discovered were used to construct a combinatorial library designed to explore combinations of the desensitizing mutations in novel sequence contexts provided by the newly identified neutral mutations. Note that the amino acid position numbering in this Example 10 refers to the relative position of native maize EPSPS without the N-terminal Met. Therefore, G101A in this Example would be G102A in reference to SEQ ID NO: 1, wherein the maize EPSPS sequence has a Met added at the N-terminal. The diversity used was the same with the addition of G101A, T102 (IALGV) and P106(WA). In all, 43 substitutions at 29 positions were selected. The library was synthesized entirely from oligonucleotides, using the known technique of synthetic shuffling and was termed NatFS (Native, fully synthetic). The vector DNA of the library was transformed into the BL21(DE3) Tuner-AroA knockout strain and the cells were plated onto M9 medium containing either 30 mM glyphosate and 30 μM of the lac operon inducer isopropyl β-D-1-thiogalactopyranoside (IPTG) or 50 mM glyphosate and no IPTG. The 184 colonies that grew on either plate were picked and subjected to a second tier of screening in which EPSPS proteins were purified and activity measured at high (200 μM) and low (50 μM) PEP and S3P, with or without 10 μM glyphosate. Selected variants were subjected to substrate saturation kinetic analysis.

In data set [3] the test system is rice EPSPS. The experiment in a line: kcat gly: enzyme turnover under application conditions, rice orthologs. Type of data set: biochemical, rice (Oryza sativa). The following applies: Table 5. Here is the method:
(§2) A more straight-forward, accurate and meaningful parameter is one in which one rate measurement is performed under presumed in vivo conditions, if known. To establish a set of conditions that mimic those under which the mutated enzyme needs to perform, the concentrations of PEP and S3P were set low (30 uM, subject to the sensitivity of assay conditions) to approach the presumed intracellular concentrations (˜15 uM, the approximate values of KM for both PEP and S3P). Glyphosate is included at 1 mM. The pH is set at 7.0 and ionic strength at 100 mM KCl, also to mimic known in vivo conditions. Ethylene glycol is present at 5% (v/v) to approximate the dielectric constant of intracellular fluid. The parameter is termed “enzyme turnover under application conditions”, which is herein shortened to “kcat gly”. The conventional formatting of the expression “kcat” is not used, to avoid this term being characterized as a standard kinetic constant.
as §1
Only variable positions are shown. Naturally occurring differences in the rice sequence from the maize sequence are shown. The mutations designed to create rice orthologs of selected maize variants are shown. Genes designed to encode the rice orthologs were synthesized by a commercial provider and expressed and purified as described above.
Fitness is indicated by the parameter kcat gly, defined in Example 1.

In data set [4] the test system is soybean EPSPS. The experiment in a line: kcat gly: enzyme turnover under application conditions, soybean variants. In kind it is biochemical. The following applies: for kcat gly: soybean variants. Here is the method:
as §2
EPSPS activity was determined by quantifying the phosphate generated from the EPSPS reaction. Release of inorganic phosphate was coupled to its reaction with 2-amino-6-mercapto-7-methylpurine ribonucleoside (MESG), catalyzed by purine nucleoside phosphorylase, according to previously described protocols. To determine the kcat gly, enzyme preparations were normalized to 0.1 mg/ml and four- to six-microliter aliquots of normalized enzyme were added to the wells of a low UV-absorbing 96-well assay plate (Greiner UV-Star). Reactions were started with the addition of 2×147 μl of reaction mixture containing 25 mM Hepes, pH 7.0, 100 mM KCl, 5% ethylene glycol, 30 μM each of PEP and S3P, 0.15 mM MESG, 1.5 U/ml purine nucleoside phosphorylase (Sigma N8264) and 1 mM glyphosate. Absorbance was monitored at 4 sec intervals for 50 sec with a Spectramax plate reader (Molecular Devices). […] Division by the enzyme concentration (0.04 to 0.1 uM, depending on activity) yields “kcat gly” in units of min^−1. […]
A library was constructed and screened as above. […] The library was constructed, screened and evaluated by the methods described in Examples 1 and 2.

Where two headings read alike, the source gives them in different places.

B1: CP4 EPSPS: Class II EPSPS from Agrobacterium sp. strain CP4 (protein, UniProt Q9R4E4 1-455, looked up)
3-phosphoshikimate …: MSHGASSRPATARKSSGLSGTVRIPGDKSISHRSFMFGGLASGETRITGLLEGEDVINTGKAMQAMGARIRKEGDTWIIDGVGNGGLLAPEAPLDFGNAATGCRLTMGLVGVYDFDSTFIGDASLTKRPMGRVLNPLREMGVQVKSEDGDRLPVTLRGPKTPTPITYRVPMASAQVKSAVLLAGLNTPGITTVIEPIMTRDHTEKMLQGFGANLTVETDADGVRTIRLEGRGKLTGQVIDVPGDPSSTAFPLVAALLVPGSDVTILNVLMNPTRTGLILTLQEMGADIEVINPRLAGGEDVADLRVRSSTLKGVTVPEDRAPSMIDEYPILAVAAAFAEGATVMNGLEELRVKESDRLSAVANGLKLNGVDCDEGETSLVVRGRPDGKGLGNASGAAVATHLDHRIAMSFLVMGLVSENPVTVDDATMIATSFPEFMDLMAGLGAKIELSDTKAA
Regarding B1, in data set [1], the kgly is 176 ± 1.6 min⁻¹. In data set [2] (CP4 EPSPS), the catalytic constant (kcat) came out at 6.85 ± 0.083 s⁻¹. For the same molecule, the inhibition constant (Ki) in data set [2] (Ki for glyphosate) came to 1970 ± 276 µM. Besides, the Michaelis-Menten constant (Km) in data set [2] (apparent Km, PEP present at 10 times its Km, read-out: Km S3P) came to 5.2 ± 0.5 µM; in data set [2] (apparent Km, S3P present at 10 times its Km, read-out: Km PEP) it was 15.5 ± 0.4 µM; in data set [2] (read-out: Km for PEP), 15.5 µM. In data set [2] (calculated with Km for PEP), the “kcat/Km*Ki” value was 52240.

B2: Os D2: rice EPSPS ortholog of Zm D2, SEQ ID NO: 16 (protein, listed as Oryza sativa)
chain: MRKWEEIVLQPIREISGAVQLPGSKSLSNRILLLSALSEGTTVVDNLLNSEDVHYMLEALKALGLSVEHDKVAKRAVVVGCGGRFPVEKDAKGEVQLFCGNAATAMRPLTAAVTAAGGNATYVLDGVPRMRERPIGDLVVGLKQLGADVDCFLGTECPPVRVKGIGGLPGGKVKLSGSISSQYLSALLMAAPLALGDVEIEIIDKLISLPYVEMTLRLMERFGVKAEHSDSWDRFYIKGGQKYESPGNAYVEGDASSASYFLAGAAITGGTVTVQGCGTTSLQGDVKFAEVLEMMGAKVTWTDTSVTVTGPPREPYGKKHLKAVDVNMNKMPDAAMTLAVVALFADGPTAIRDVASWRVKETERMVAIRTELTKLGASVEEGPDYCIITPPPKLNITAIDTYGDHRMAMAFSLAACADVPVTIRDPGCTRKTFPNYFDVLSTFVRN
Regarding B2, in data set [3], the kcat gly was 1.48 s⁻¹.

B3: Gm F3: soybean EPSPS variant from combinatorial library, SEQ ID NO: 13 (protein)
chain: MAAAEKPSTSPEIVLEPIKDFSGTITLPGSKSLSNRILLLAALSEGTTVVDNLLYSEDIHYMLGALRTLGLRVEDDKTTKQAIVEGCGGLFPTSKESKDEINLFCGNAATAMRPLTAAVVAAGGNASYVLDGVPRMRERPIGDLVAGLKQLGADVDCFLGTNCPPVRVNGKGGLPGGKVKLSGSVSSQYLTALLMAAPLALGDVEIEIVDKLISVPYVEMTLKLMERFGVSVEHSGNWDRFLVHGGQKYKSPGNAFVEGDASSASYLLAGAAITGGTITVNGCGTSSLQGDVKFAEVLEKMGAKVTWSENSVTVSGPPRDFSGRKVLRGIDVNMNKMPDVAMTLAVVALFANGPTAIRDVASWRVKESERMIAICTELRKLGATVEEGPDYCVITPPEKLNVTAIDTYGDHRMAMAFSLAACGDVPVTIKDPGCTRKTFPDYFEVLERLTKH
modifications: Glycine max
For the molecule B3, the kcat gly in data set [4] came out at 0.938 s⁻¹.

B4: Gm F3-V340A: soybean EPSPS variant Gm F3 with V340A, SEQ ID NO: 14 (protein)
chain: MAAAEKPSTSPEIVLEPIKDFSGTITLPGSKSLSNRILLLAALSEGTTVVDNLLYSEDIHYMLGALRTLGLRVEDDKTTKQAIVEGCGGLFPTSKESKDEINLFCGNAATAMRPLTAAVVAAGGNASYVLDGVPRMRERPIGDLVAGLKQLGADVDCFLGTNCPPVRVNGKGGLPGGKVKLSGSVSSQYLTALLMAAPLALGDVEIEIVDKLISVPYVEMTLKLMERFGVSVEHSGNWDRFLVHGGQKYKSPGNAFVEGDASSASYLLAGAAITGGTITVNGCGTSSLQGDVKFAEVLEKMGAKVTWSENSVTVSGPPRDFSGRKVLRGIDVNMNKMPDAAMTLAVVALFANGPTAIRDVASWRVKESERMIAICTELRKLGATVEEGPDYCVITPPEKLNVTAIDTYGDHRMAMAFSLAACGDVPVTIKDPGCTRKTFPDYFEVLERLTKH
modifications: Glycine max
With B4, in data set [4], the “fitness (kcat gly) compared with Gm F3” value is “significant fitness improvement”.

B5: Gm F3-02-A7: soybean EPSPS variant, SEQ ID NO: 15 (protein)
chain: MAAAEKPSTSPEIVLEPIKDFSGTITLPGSKSLSNRILLLAALSEGTTVVDNLLYSEDIHYMLGALRTLGLRVEDDKTTKQAIVEGCGGLFPTSKESKDEINLFCGNAATAMRPLTAAVVAAGGNASYVLDGVPRMRERPIGDLVAGLKQLGADVDCFLGTNCPPVRVNGKGGLPGGKVKLSGSVSSQYLTALLMAAPLALGDVEIEIVDKLISVPYVEMTLKLMERFGVSVEHSGNWDRFLVHGGQKYKSPGNAFVEGDASSASYLLAGAAITGGTITVNGCGTSSLQGDVKFAEVLEKMGAKVTWSENSVTVSGPPRDFSGRKVLRGIDVNMNKMPDAAMTLAVVALFANGPTAIRDVASWRVKESERMIAICTELRKLGATVEEGPDYCVITPPEKLNVTAIDTYGDHRMAMAFSLAACGDVPVTIKDPGCTRKTFPDYFEVLERLTKH
modifications: Glycine max
Turning to B5, the kcat gly in data set [4] worked out at 1.34 s⁻¹.

(Values after US20200392528A1, “IMPROVED PLANT EPSP SYNTHASES AND METHODS OF USE” (PIONEER HI-BRED INTERNATIONAL, INC., priority 2017, published 2020).)
